Measurements taken from US20240117030A1 (Pfizer, published 2024).
Read-outs that look alike come from different tables or passages of the source.

Experiments:
recombinant human IL-4 [1] = biological target: T1, recombinant human IL-4 (human, UniProt P05112 25-153); assay: cell-based or functional assay
T1 sequence (looked up): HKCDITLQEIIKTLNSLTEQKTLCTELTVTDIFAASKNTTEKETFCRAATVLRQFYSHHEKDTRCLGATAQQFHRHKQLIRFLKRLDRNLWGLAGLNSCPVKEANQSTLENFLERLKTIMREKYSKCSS

recombinant human IL-4 [2] = biological target: T1, recombinant human IL-4; assay: cell-based or functional assay; remark: listed apart in the source
[3] = biological target: T2, recombinant cynomolgus monkey IL-4 (cynomolgus monkey, UniProt P79339 25-153); assay: cell-based or functional assay
T2 sequence (looked up): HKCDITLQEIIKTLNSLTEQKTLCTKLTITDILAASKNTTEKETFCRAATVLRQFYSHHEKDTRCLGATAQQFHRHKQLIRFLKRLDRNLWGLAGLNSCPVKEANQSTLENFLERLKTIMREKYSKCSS

recombinant human IL-4 [4] = biological target: T1, recombinant human IL-4; assay: cell-based or functional assay; remark: listed apart in the source
recombinant human IL-13 [5] = biological target: T3, recombinant human IL-13 (human, UniProt P35225 35-146); assay: cell-based or functional assay
recombinant human IL-13 [6] = biological target: T3, recombinant human IL-13; assay: cell-based or functional assay; remark: listed apart in the source
[7] = biological target: T4, recombinant cynomolgus monkey IL-13 (cynomolgus monkey, UniProt Q0PW92 19-132); assay: cell-based or functional assay
recombinant human IL-13 [8] = biological target: T3, recombinant human IL-13; assay: cell-based or functional assay; remark: listed apart in the source
recombinant human IL-4 [9] = biological target: T1, recombinant human IL-4; assay: KinExA, fixed antigen format
[10] = biological target: T2, recombinant cynomolgus monkey IL-4; assay: KinExA, fixed antigen format
recombinant human IL-13 [11] = biological target: T3, recombinant human IL-13; assay: KinExA, fixed antigen format
[12] = biological target: T4, recombinant cynomolgus monkey IL-13; assay: KinExA, fixed antigen format
[13] = biological target: T5, recombinant human IL-33 (R&D Systems 3625-IL), reduced with DTT (human, UniProt O95760 112-270, limits assumed); assay: cell-based or functional assay
T5 sequence (looked up): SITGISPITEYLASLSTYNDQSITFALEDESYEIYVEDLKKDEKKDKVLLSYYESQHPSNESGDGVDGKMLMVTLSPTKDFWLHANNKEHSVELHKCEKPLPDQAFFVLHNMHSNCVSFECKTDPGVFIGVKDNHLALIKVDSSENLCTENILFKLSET

human IL-33 mm2 Cys = biological target: T6, human IL-33 mm2 Cys (human, UniProt O95760 112-270, limits assumed); assay: cell-based or functional assay
T6 sequence (looked up): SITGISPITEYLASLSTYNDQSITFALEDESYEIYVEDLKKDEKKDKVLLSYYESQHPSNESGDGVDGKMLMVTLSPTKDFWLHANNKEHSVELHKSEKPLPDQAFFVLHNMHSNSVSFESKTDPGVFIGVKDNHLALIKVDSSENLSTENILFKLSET

[14] = biological target: T5, recombinant human IL-33 (R&D Systems …); assay: cell-based or functional assay; remark: listed apart in the source
[15] = biological target: T5, recombinant human IL-33 (R&D Systems …); assay: cell-based or functional assay; remark: listed apart in the source
[16] = biological target: T7, biotinylated human IL-33 wild-type (WT), reduced with 3 mM DTT (human, UniProt O95760 112-270, limits assumed, biotinylated (site not stated)); assay: KinExA solution affinity, fixed antigen format, global fit
T7 sequence (looked up): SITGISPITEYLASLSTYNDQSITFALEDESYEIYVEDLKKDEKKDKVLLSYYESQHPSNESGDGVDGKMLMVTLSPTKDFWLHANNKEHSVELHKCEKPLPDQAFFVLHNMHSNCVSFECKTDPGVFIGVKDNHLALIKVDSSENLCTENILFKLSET

T3 sequence (P35225 35-146 limits assumed): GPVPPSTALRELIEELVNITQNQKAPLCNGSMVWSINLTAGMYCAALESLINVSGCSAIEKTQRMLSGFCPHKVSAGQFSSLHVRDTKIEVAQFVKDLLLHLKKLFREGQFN
T4 sequence (Q0PW92 entry or part of it limits assumed): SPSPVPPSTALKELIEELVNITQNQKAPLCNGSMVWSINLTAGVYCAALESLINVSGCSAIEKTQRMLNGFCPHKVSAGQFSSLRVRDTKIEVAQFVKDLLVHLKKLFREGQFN

B1: IL413TSLP-1024 (other)
heavy: not shown
chain 1: DIQMTQSPSSLSASVGDRVTITCKASESVDHFGWSLVHWYQQKPGKAPKLLIYRASNLESGVPSRFSGSGSGTDFTLTISSLQPEDFATYYCQQSNEDPWTFGGGTKVEIKRTVAAPSVFIFPPSDEQLKSGTASVVCLLNNFYPREAKVQWKVDNALQSGNSQESVTEQDSKDSTYSLSSTLTLSKADYEKHKVYACEVTHQGLSSPVTKSFNRGECGGGGSEVTLRESGPALVKPTQTLTLTCTFSGFSLSNFGEGLSWIRQPPGKGLEWLAHIYWDDDKRYNPSLKSRLTISKDTSRNQVVLTMTNMDPVDTATYYCARRETVFYWYFDVWGQGTTVTVSSASTKGPSVFPLAPSSKSTSGGTAALGCLVKDYFPEPVTVSWNSGALTSGVHTFPAVLQSSGLYSLSSVVTVPSSSLGTQTYICNVNHKPSNTKVDKKVEPKSCEKTHTCPPCPAPEAAGAPSVFLFPPKPKDTLMISRTPEVTCVVVDVSHEDPEVKFNWYVDGVEVHNAKTKPREEQYNSTYRVVSVLTVLHQDWLNGKEYKCKVSNKALPAPIEKTISKAKGQPREPQVYTLPPSREEMTKNQVSLTCEVKGFYPSDIAVEWESNGQPENNYKTTPPVLDSDGSFFLYSKLTVDKSRWQQGNVFSCSVLHEALHSHYTQKSLSLSPGK
light 1: SYVLTQPPSVSVAPGQTARITCGGNNLGSKSVHWYQQKPGQAPVLVVYDDKDRPSWIPERFSGSNSGNTATLTISRGEAGDEADYYCQVWDSKSDHVVFGGGTKLTVLGQPKAAPSVTLFPPSSEELQANKATLVCLISDFYPGAVTVAWKADSSPVKAGVETTTPSKQSNNKYAASSYLSLTPEQWKSHRSYSCQVTHEGSTVEKTVAPTECS
light 2: DIQMTQSPSSLSASVGDRVTITCRASQSVDEEGDSYMNWYQQKPGKAPKLLIYAASNLESGVPSRFSGSGSGTDFTLTISSLQPEDFATYYCQQSNKDPPTFGGGTKVEIKRTVAAPSVFIFPPSDEQLKSGTASVVCLLNNFYPREAKVQWKVDNALQSGNSQESVTEQDSKDSTYSLSSTLTLSKADYEKHKVYACEVTHQGLSSPVTKSFNRGEC
chain 2: EVQLVESGGGLVQPGGSLRLSCAASGFTFSSYAMSWVRQAPGKGLEWVASISSGDTTYYPDSVKGRFTISRDNAKNSLYLQMNSLRAEDTAVYYCARNEGYYFGLTLWGQGTLVTVSSASTKGPSVFPLAPSSKSTSGGTAALGCLVKDYFPEPVTVSWNSGALTSGVHTFPAVLQSSGLYSLSSVVTVPSSSLGTQTYICNVNHKPSNTKVDKKVEPKSC
notes: Trispecific Tri-Fab-Fc, dual cell, RR-EE, LS; Chains in order: SFab HC(3), DFab LC(1)-HC(2), SFab LC(3), DFab LC(2), modified Fd(1)
IC50 (median), IL-4 induced CD23 expression on human monocytes (recombinant human IL-4 [1]): 8.27 pM
IC50 (median), CD23 expression, Human Whole Blood (recombinant human IL-4 [2]): 23.6 pM
IC50 (median), CD23 expression, Peripheral Blood Monocytes (recombinant human IL-4 [2]): 8.27 pM
IC50 (median), CD23 expression, Human Whole Blood [3]: 16.4 pM
IC50 (median), CD23 expression, Peripheral Blood Monocytes [3]: 10.1 pM
IC50 (median), IL-4 induced CD23 expression on human monocytes (recombinant human IL-4 [4]): 8.27 pM
IC50 (median), IL-13 induced CD23 expression on human monocytes (recombinant human IL-13 [5]): 13 pM
IC50 (median), CD23 expression, Human Whole Blood (recombinant human IL-13 [6]): 10.2 pM
IC50 (median), CD23 expression, Peripheral Blood Monocytes (recombinant human IL-13 [6]): 13 pM
IC50 (median), CD23 expression, Human Whole Blood [7]: 41.9 pM
IC50 (median), CD23 expression, Peripheral Blood Monocytes [7]: 31.6 pM
IC50 (median), IL-13 induced CD23 expression on human monocytes (recombinant human IL-13 [8]): 13 pM
Kd (recombinant human IL-4 [9]): 0.323 pM
Kd [10]: < 0.661 pM
Kd (recombinant human IL-13 [11]): 0.266 pM
Kd [12]: 0.581 pM

B2: IL33-0232 (antibody, human IgG1, kappa, V domains shown)
VH: EVQLVESGGGLVQPGGSLRLSCAASGFTFSSYWMYWVRQAPGKGLEWVAAITPNAGEDYYPESVKGRFTISRDNAKNSLYLQMNSLRAEDTAVYYCARGHYYYTSYSLGYWGQGTLVTVSS
VL: DIQMTQSPSSLSASVGDRVTITCKASQNINKHLDWYQQKPGKAPKLLIYFTNNLQTGVPSRFSGSGSGTDFTLTISSLQPEDFATYYCFQYNQGWTFGGGTKVEIKR
IC50 [pM] versus human reduced IL-33 (R&D), Experiment 1 (HEK-Blue SEAP) [13]: 35 pM
IC50 [pM] versus human IL-33 mm2 Cys (HEK-Blue SEAP) (human IL-33 mm2 Cys): 142 pM
IC50 [nM] versus reduced human IL-33 (R&D), IC50 (AVE) [14]: 0.071 nM
IC50 [nM] versus reduced human IL-33 (R&D), IC50 (AVE) [15]: 0.109 nM
Kd [16]: 3.4 pM
